In paper PMC8248388:
pKd: −log10 of the molar value.

Columns and labels:
FcγRIIIa V176 [1] = target: FcγRIIIa V176 (UniProt P08637)
FcγRIIb [2] = target: FcγRIIb (UniProt P31994); assay: SPR; Biacore T200, 25°C, HBS-EP+; anti-His antibody on a CM5 chip captures His-tagged FcγRIIb (404 RU); rituximab 375-6000 nM injected; steady-state model, report points 15 s after injection start
FcγRIIb [3] = target: FcγRIIb (UniProt P31994); assay: SPR; Biacore T200, 25°C, HBS-EP+; His-tagged FcγRIIb captured by anti-His antibody on a CM5 chip (404 RU), rituximab injected at 375-6000 nM; steady-state model, report points 15 s after injection start
FcγRI [4] = target: FcγRI (UniProt P12314); assay: SPR; Biacore T200, 25°C, HBS-EP+; His-tagged FcγR captured by anti-His antibody on a CM5 chip, rituximab injected; single-cycle kinetics, five concentrations, 600 s dissociation; 1:1 binding model, KD from kd/ka
Sequence of UniProt P12314 (P12314 16-292): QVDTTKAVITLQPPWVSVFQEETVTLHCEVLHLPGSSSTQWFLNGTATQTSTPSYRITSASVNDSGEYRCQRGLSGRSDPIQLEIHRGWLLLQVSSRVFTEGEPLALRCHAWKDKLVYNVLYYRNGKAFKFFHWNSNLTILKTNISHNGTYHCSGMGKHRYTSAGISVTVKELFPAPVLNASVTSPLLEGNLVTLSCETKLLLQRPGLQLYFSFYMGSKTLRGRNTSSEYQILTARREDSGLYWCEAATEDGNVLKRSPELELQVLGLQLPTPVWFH

FcγRIIIa F176 [5] = target: FcγRIIIa F176 (UniProt P08637); assay: as above
FcγRIIIa F176 [6] = target: FcγRIIIa F176 (UniProt P08637); assay: SPR; Biacore T200, 25°C, HBS-EP+; anti-His antibody amine-coupled on a CM5 chip captures the His-tagged FcγR; rituximab injected at five increasing concentrations (150 s, 30 µl/min), single-cycle kinetics, dissociation 600 s; 1:1 binding model, KD from kd/ka
FcγRIIIa V176 [7] = target: FcγRIIIa V176 (UniProt P08637); assay: as above
FcγRI [8] = target: FcγRI (UniProt P12314); assay: as above

Sequence of UniProt P31994 (P31994 43-217): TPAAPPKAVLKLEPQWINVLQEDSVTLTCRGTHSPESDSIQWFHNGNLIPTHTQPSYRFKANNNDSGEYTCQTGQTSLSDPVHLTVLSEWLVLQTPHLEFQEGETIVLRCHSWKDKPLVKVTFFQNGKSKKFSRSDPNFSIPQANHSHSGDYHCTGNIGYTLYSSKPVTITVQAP

Substance	EC50 of the ADCC Reporter Bioassay (Promega G7015); Day 7 samples from 200, 400 and 800 µM ThioFuc (38, 34, 37 ng/mL); FcγRIIIa variant on the effector cells not stated (FcγRIIIa V176 [1]) [µg/mL]	pKd (FcγRIIb [2])	pKd (FcγRIIb [3])	pKd (FcγRI [4])	pKd (FcγRIIIa F176 [5])	pKd (FcγRIIIa F176 [6])	pKd (FcγRIIIa V176 [7])	EC50 of the ADCC Reporter Bioassay (Promega G7015): Raji target cells, engineered Jurkat effector cells, luciferase; FcγRIIIa variant on the effector cells not stated (FcγRIIIa V176 [1]) [µg/mL]	pKd (FcγRI [8])
modified rituximab (46% afucosylation and 48% thiofucosylation) (antibody)	0.038	6.04	6.05	7.95	7.14	7.15	7.89		
rituximab (8.5% afucosylation) (antibody)				7.85				0.087	7.92
